One may read the Kd as the free concentration of one partner at which half of the binding sites on the other are occupied at equilibrium, for simple one-to-one binding. As usually defined, the koff is the first-order rate constant of dissociation. The kon is a measure of how fast the partners come together.

Several values for one entry are separate records, joined by “and”; a condition that tells them apart may be missing. Equal values may be shown once.

In assay [1] the target is T1, CEACAM1-HIS (Sino Biologics Inc.) (Homo sapiens (Human), UniProt P13688 35-428).
T1 construct: bought; not shown: His tag
T1 sequence: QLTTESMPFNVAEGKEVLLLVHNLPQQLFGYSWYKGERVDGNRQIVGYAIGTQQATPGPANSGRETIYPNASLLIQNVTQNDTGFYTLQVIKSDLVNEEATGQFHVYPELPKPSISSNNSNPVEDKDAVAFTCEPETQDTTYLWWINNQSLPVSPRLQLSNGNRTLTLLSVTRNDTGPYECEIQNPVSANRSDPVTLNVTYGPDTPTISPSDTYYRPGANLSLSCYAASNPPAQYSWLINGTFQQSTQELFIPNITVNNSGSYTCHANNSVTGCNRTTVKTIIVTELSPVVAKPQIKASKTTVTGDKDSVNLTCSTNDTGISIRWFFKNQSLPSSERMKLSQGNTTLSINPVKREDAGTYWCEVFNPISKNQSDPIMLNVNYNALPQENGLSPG
Nature of the assay: SPR multi-cycle, IgG on Protein A. The method, then:
As an alternative approach to assess the binding of the antibody combinations and the control antibodies to CEACAM1, a kinetic analysis was performed on a Biacore T200 running Biacore T200 Evaluation Software V2.0.1. All experiments were run at 25° C. with HBS-P+ running buffer (pH 7.4).
For multi-cycle kinetic analysis purified antibody was immobilized at a protein concentration of 1 μg/mL in HBS-P+. At the start of each cycle, antibody was captured on Protein A to give an RU of ˜100 and the surface allowed to stabilize. Kinetic data was obtained at a flow rate of 35 μl/min to minimize any potential mass transfer effects. Multiple repeats of the blank (no CEACAM1) and a repeat of a single concentration of the analyte were programmed into the kinetic run in order to check the stability of both the surface and analyte over the kinetic cycles. For kinetic analysis, a 2-fold dilution series was selected from 100 to 1.5625 nM CEACAM1. The association phase of CEACAM1 was monitored initially for 180 seconds. In the subsequent experiment a longer association time (275 seconds) was used in order to better reach steady state. The dissociation phase was measured for 250 seconds. Regeneration of the Protein A surface was conducted using 2 injections of 10 mM glycine-HCL pH 1.5 at the end of each cycle.
The signal from the reference channel Fc1 was subtracted from that of Fc2, Fc3 and Fc4 to correct for differences in non-specific binding to a reference surface, a global Rmax parameter was used in the 1-to-1 binding model. The relative KD compared to the chimeric parental antibody was calculated by dividing the KD of the Composite Human Antibody™ variants by that of the chimeric parental antibody on the same chip.

Assay [2] deals with T2, CEACAM5 on transfected HeLa cells (UniProt P06731 35-685).
T2 construct: whole, on cells; also called C5
T2 sequence (looked up): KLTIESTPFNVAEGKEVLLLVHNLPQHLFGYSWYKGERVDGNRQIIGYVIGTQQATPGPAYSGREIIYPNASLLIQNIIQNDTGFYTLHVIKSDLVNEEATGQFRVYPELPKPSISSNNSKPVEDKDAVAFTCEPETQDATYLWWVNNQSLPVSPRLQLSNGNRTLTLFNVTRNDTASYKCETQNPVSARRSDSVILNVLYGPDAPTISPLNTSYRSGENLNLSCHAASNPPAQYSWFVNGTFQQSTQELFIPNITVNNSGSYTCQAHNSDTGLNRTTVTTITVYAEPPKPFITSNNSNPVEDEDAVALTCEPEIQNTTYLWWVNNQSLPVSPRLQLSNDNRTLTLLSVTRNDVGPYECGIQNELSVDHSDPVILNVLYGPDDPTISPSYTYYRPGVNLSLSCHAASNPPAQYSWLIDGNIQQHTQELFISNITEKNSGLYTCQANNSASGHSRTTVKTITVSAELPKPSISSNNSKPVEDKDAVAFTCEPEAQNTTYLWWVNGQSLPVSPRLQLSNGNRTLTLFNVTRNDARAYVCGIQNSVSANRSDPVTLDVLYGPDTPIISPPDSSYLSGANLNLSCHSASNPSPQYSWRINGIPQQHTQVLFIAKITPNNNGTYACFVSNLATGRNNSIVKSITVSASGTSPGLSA
Nature of the assay: flow cytometry, transfected HeLa. As to the method: (§1) Binding selectivity of the selected antibody variants was assessed by flow cytometry using HeLa cells transfected with vectors expressing CEACAM1, CEACAM5, and CEACAM6, respectively. The resulting cells were used for flow cytometry experiments and were cultured at 37° C., 5.0% CO₂ in Dulbecco's modified Eagle's medium supplemented with 10% fetal bovine serum, penicillin (100 U/ml) and dihydrostreptomycin ([…]). Cell lines were stained with the indicated antibodies followed by fluorochrome-conjugated monoclonal antibody specific for the indicated antibody isotypes such as human IgG4 or mouse IgG1 together with viable dye (DAPI). Data were acquired with a Cytoflex flow cytometer ([…]) and analyzed with FlowJo software (TreeStar, V7.6.5 for Windows).
On the technique in general: In flow cytometry, cells or beads pass a laser one at a time.

The target in assay [3] is T3, CEACAM1 on transfected HeLa cells (Homo sapiens (Human), UniProt P13688 35-526).
T3 construct: also called C1
T3 sequence: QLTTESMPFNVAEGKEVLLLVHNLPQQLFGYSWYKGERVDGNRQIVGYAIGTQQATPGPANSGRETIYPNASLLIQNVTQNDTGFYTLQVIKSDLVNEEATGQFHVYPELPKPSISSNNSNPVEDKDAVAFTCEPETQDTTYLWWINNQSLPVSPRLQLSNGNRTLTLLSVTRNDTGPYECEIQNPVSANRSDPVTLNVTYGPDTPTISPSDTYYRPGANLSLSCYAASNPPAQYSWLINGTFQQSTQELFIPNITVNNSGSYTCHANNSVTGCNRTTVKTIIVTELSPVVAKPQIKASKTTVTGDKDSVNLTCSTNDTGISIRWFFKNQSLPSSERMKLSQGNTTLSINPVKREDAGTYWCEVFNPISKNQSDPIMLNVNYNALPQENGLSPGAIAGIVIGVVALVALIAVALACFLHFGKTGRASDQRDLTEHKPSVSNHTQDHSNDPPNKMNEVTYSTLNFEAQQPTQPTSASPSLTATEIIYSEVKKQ
Nature of the assay: flow cytometry, transfected HeLa. As to the method:
as §1

B1: chimeric parental antibody VH0/Vκ0 (antibody, IgG4, V domains shown)
VH: EVQLVESGGGFVKPGGSLKLSCAASGFSFSDYYLYWVRQTPEKRLEWVATISVGGGNTSYPDSVKGRFTISRDNAKNNLYLQMSSLKSEDTAMYYCTRGLYYGPAWFAYWGQGTLVTVSA
VL: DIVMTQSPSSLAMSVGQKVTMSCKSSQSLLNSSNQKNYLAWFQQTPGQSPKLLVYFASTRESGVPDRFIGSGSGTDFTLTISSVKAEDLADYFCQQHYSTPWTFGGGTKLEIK
notes: IgG4 (S241P), kappa; also called Chimera; chimeric antibody
Consider B1, for which, in assay [1], the Kd was 27.2 nM and 22.3 nM and 19.5 nM; the koff was 0.0053 s⁻¹ and 0.00571 s⁻¹ and 0.00531 s⁻¹; the kon was 195000 M⁻¹ s⁻¹ and 256000 M⁻¹ s⁻¹ and 272000 M⁻¹ s⁻¹; the “relative KD to chimeric parental antibody” value amounted to 1 ratio. The molecule also gave a relative fluorescence intensity in assay [2] of 0.42. In assay [3], this molecule displayed a relative fluorescence intensity of 84.2.

B2: VH2 N56Q/Vκ4 S27(f)A IgG (antibody, V domains shown)
VH: EVQLLESGGGLVQPGGSLRLSCAASGFSFSDYYLYWVRQAPGKGLEWVATISVGGGQTSYADSVKGRFTISRDNSKNTLYLQMNSLRAEDTAMYYCTRGLYYGPAWFAYWGQGTLVTVSS
VL: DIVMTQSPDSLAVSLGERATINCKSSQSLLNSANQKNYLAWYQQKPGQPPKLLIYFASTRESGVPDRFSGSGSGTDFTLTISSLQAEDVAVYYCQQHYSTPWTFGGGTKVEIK
notes: IgG4 S241P, kappa; also called Parent; Parent IgG
For the molecule B2, the relative fluorescence intensity in assay [2] stood at 0; in assay [3], 89.3.

Source of the values: patent US20250388666A1 (BRIGHAM AND WOMEN S HOSPITAL, published 2025).
